According to paper PMC13355702:

Columns and labels:
[1] = biological target: BcM60K (metallopeptidase domain of the Bacteroides caccae peptidase_M60 O-glycopeptidase BcM60K) (Bacteroides caccae)

Substance | KM of cleavage of the FRET substrate (global fit of progress curves) (BT4244) [µM] | KM of cleavage of the FRET substrate (global fit of progress curves) [1] [µM]
FRET substrate mNeonGreen-IgA1 hinge linker-mScarlet-I, Tn-modified (domain or fragment) | 1 | 
FRET substrate mNeonGreen-MUC2_R1 linker-mScarlet-I, Tn-modified (domain or fragment) | 5.6 | 
FRET substrate mNeonGreen-MUC5AC_R2 linker-mScarlet-I, 3SC1-modified (domain or fragment) |  | 7.6
FRET substrate mNeonGreen-MUC5AC_R2 linker-mScarlet-I, 6SC1-modified (domain or fragment) |  | 2.5
FRET substrate mNeonGreen-MUC5AC_R2 linker-mScarlet-I, C1-modified (domain or fragment) | 2.9 | 6.2
FRET substrate mNeonGreen-MUC5AC_R2 linker-mScarlet-I, C2-modified (domain or fragment) |  | 4.5
FRET substrate mNeonGreen-MUC5AC_R2 linker-mScarlet-I, Tn-modified (domain or fragment) | 2.9 | 7.8
